# Source: US20240207421A1, “NERVE TARGETING PEPTIDES AND METHODS OF USE” (ALUME BIOSCIENCES, INC., priority 2020, published 2024)
# Experiments:
# [1] = biological target: T1, Human Nidogen-2 (Homo sapiens, UniProt Q14112); experiment: Phage display library screening (Example 1, Power BI analysis), binding to Human Nidogen-2; conditions: R3 Nidogen-2, NextGen sequencing count of phage sequences distinct for this target
# T1 construct: purchased Novus NBP2-10365
# T1 sequence (Q14112 31-1375): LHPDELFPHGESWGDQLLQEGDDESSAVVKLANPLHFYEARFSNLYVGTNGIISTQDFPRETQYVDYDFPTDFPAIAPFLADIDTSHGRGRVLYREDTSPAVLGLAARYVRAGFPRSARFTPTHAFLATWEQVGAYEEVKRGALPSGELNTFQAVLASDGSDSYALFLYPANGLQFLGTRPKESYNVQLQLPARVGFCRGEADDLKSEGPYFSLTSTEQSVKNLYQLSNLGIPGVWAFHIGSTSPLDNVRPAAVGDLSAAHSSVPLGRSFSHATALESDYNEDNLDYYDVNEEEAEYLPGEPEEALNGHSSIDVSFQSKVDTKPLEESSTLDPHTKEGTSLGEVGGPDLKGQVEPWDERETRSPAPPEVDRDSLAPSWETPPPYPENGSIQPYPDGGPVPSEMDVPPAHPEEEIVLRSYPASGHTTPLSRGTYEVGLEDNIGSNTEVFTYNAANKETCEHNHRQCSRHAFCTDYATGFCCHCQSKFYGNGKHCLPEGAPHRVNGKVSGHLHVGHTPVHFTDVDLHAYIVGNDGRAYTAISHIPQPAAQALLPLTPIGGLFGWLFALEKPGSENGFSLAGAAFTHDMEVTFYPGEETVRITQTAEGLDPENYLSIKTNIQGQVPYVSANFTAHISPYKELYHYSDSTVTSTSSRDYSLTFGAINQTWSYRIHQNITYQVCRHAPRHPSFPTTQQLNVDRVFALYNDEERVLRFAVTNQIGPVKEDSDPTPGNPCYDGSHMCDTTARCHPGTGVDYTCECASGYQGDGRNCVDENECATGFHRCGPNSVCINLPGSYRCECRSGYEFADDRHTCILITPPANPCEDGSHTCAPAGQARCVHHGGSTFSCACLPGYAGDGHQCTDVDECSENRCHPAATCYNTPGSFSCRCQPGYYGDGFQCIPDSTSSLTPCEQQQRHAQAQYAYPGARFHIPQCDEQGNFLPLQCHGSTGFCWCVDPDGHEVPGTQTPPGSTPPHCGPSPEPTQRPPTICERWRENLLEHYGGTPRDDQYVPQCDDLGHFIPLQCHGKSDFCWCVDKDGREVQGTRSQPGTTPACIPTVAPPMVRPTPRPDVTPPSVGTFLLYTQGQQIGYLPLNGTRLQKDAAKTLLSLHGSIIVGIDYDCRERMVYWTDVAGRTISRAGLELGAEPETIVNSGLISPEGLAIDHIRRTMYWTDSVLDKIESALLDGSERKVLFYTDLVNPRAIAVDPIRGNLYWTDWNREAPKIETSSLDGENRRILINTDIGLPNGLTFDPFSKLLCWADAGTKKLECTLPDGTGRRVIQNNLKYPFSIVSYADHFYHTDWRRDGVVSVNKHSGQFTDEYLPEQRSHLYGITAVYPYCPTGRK
# From the text: (§1) Phage display library screens were used to identify peptides that bind to target proteins that are expressed in human nerves and could therefore be useful for systemic in-vivo labeling of nerves during fluorescence assisted surgery. Specifically, m13 phage libraries expressing 7 or 12 random amino acid peptides, or a cyclic peptide CX7C, on the N-terminus of the minor coat protein pIII (New England Biolabs) were processed through multiple rounds of selection for binding to target proteins expressed in peripheral nerve (Table 1).
# (§2) The library was processed through up to 4 binding and wash cycles. For selection, phage libraries were incubated for up to 24 hours at 4° C. in 96 well plates that had been coated with one of the target proteins. Plates were then washed with PBS and phage were eluted using 0.2M glycine pH 2.0. Phage supernatants where then neutralized with Tris pH 9.0 prior to plating on TG1 bacteria and LB agar plates. Colonies were counted to determine titer followed by DNA preparation of pools of phage and NextGen sequencing. After rounds of selection, phage were pooled and amplified for iterative selection. Phage that were bound at each round were sequenced. NextGen sequencing of pools after 2, 3 and 4 rounds of selection was used to isolate candidate sequences that were analyzed further to identify those that specifically bound each unique target protein.
# (§3) DNA sequences were trimmed of all vector amino acids and imported as a peptide dataset into Power BI. Power BI was used to identify phage display sequences for specific columns (corresponding to each target protein) in order to identify sequences that were distinct for each protein target. The Power BI code evaluated each individual sequence for each protein target against the sequences present in other protein targets in a test for uniqueness. Using the distinct flag, the Power BI code generated a filtered peptide dataset that excluded any peptide sequence that occur in more than one column which identified a specific protein target. This method therefore identified candidate peptide sequences showing selective binding to an individual target protein. Unique sequences in each column were sorted by individual counts such that the most selected sequences appeared at the top of the column.
# [2] = biological target: T2, Human Myelin Basic Protein (Homo sapiens, UniProt P02686); experiment: phage display R3, NGS count
# T2 sequence (P02686 135-304 limits assumed): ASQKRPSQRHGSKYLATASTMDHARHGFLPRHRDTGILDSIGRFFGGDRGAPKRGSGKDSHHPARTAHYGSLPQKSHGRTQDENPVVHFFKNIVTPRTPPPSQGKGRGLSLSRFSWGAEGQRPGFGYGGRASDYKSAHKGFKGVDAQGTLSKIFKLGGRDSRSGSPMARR
# [3] = biological target: Human MPZ (human) (UniProt P25189); experiment: phage display, NGS count
# Chain of Human MPZ (human) (P25189 30-153 limits assumed): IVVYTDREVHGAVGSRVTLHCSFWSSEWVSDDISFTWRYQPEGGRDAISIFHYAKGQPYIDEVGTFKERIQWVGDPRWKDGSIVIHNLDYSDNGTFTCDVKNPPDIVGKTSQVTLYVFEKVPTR
# [4] = biological target: Human MPZ (human) (UniProt P25189); experiment: phage display R3, NGS count
# [5] = biological target: Human Nidogen-2 (human) (UniProt Q14112); experiment: phage display, NGS count
# [6] = biological target: T2, Human Myelin Basic Protein; experiment: phage display, NGS count
# [7] = biological target: Human Nidogen-2 (human) (UniProt Q14112); experiment: phage display R3, NGS count
# [8] = tested on: Human Myelin PLP; experiment: Phage display library screening (Example 1, Power BI analysis), binding to Human Myelin PLP; conditions: R3 Myelin PLP, NextGen sequencing count of phage sequences distinct for this target
# From the text: as §1, §2, §3
# [9] = tested on: Human Myelin PLP; experiment: Phage display library screening (Example 2, Python script analysis), binding to Human Myelin PLP; conditions: combined unique sequence count, Python/R script analysis
# In short: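 Target protein-coated wells were panned with M13 phage libraries displaying 7- or 12-mer random or cyclic CX7C peptides on pIII, over up to 4 rounds (up to 24 h, 4° C), with glycine pH 2.0 elution. Pools from rounds 2–4 were NextGen-sequenced. Peptides specific to each target were ranked by unique sequence count.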
# [10] = biological target: T2, Human Myelin Basic Protein; experiment: phage display R3, NGS count; remark: listed apart in the source
# [11] = biological target: T2, Human Myelin Basic Protein; experiment: phage display, NGS count; remark: listed apart in the source
molecule,measurement,setting,value
ACEPRSLANC (R3 Nidogen-2-binding peptide),Count,[1],11
ACGEGEADVC (R3 Nidogen-2-binding peptide),Count,[1],26
ACPENKSKHC (R3 Nidogen-2-binding peptide),Count,[1],13
ACTVHKWDNC (R3 Nidogen-2-binding peptide),Count,[1],11
AGFPPNT (peptide),Count,[2],10
ALPLSAS (peptide),Count,[3],197
same,Count,[4],196
ALYLPGR (peptide),Count,[5],7
ARMAFSL (peptide),Count,[5],7
ATYNMSQ (peptide),Count,[5],7
AWSTSSV (peptide),Count,[6],12
same,Count,[2],12
DGKNTSN (peptide),Count,[2],10
DPITRLK (peptide),Count,[3],93
same,Count,[4],92
DPWVMLR (peptide),Count,[6],11
same,Count,[2],11
DRNSVFW (peptide),Count,[3],50
same,Count,[4],50
EAMMHRN (peptide),Count,[5],6
ETTRNYG (peptide),Count,[3],69
same,Count,[4],68
GLRTMEP (peptide),Count,[5],7
GLTPKLF (peptide),Count,[4],48
GPLRMAT (peptide),Count,[3],51
same,Count,[4],50
GYWRNAL (R3 Nidogen-2-binding peptide),Count,[1],11
GYWRNAL (peptide),Count,[7],11
HPSTWHK (peptide),Count,[2],18
HRLPWHH (peptide),Count,[6],10
same,Count,[2],10
HSRLPTP (peptide),Count,[5],13
IKPPYTH (peptide),Count,[3],82
same,Count,[4],78
KAIHPMRG (R3 Nidogen-2-binding peptide),Count,[1],11
KAIHPMRG (peptide),Count,[7],11
KMAGHTV (peptide),Count,[3],54
same,Count,[4],51
LHITPEV (peptide),Count,[5],6
LRPISHE (peptide),Count,[2],12
LSIRGLT (peptide),Count,[5],6
LSSPLSL (peptide),Count,[3],56
same,Count,[4],56
LVHPFHG (peptide),Count,[5],8
MQTQGRV (peptide),Count,[2],12
NDTKTPS (peptide),Count,[2],19
NILSQVN (peptide),Count,[5],6
QIGVLPS (peptide),Count,[2],11
QLLESRT (peptide),Count,[5],6
QMDAKHM (peptide),Count,[5],6
QNTGLKW (peptide),Count,[6],11
same,Count,[2],11
QTLRPKQ (peptide),Count,[5],6
RVPHSRT (peptide),Count,[4],49
SAHAKHH (peptide),Count,[3],52
same,Count,[4],51
SHLASRP (peptide),Count,[4],97
SHSPGNK (peptide),Count,[3],79
same,Count,[4],67
SMWSQFR (R3 Myelin PLP-binding peptide),Count,[8],34
same,Count,[9],34
SPDRTSL (peptide),Count,[6],12
same,Count,[2],12
TESLFPH (peptide),Count,[3],52
same,Count,[4],50
TIASLLV (peptide),Count,[5],6
TMASPAK (peptide),Count,[3],58
same,Count,[4],52
TNPWKPH (R3 Myelin PLP-binding peptide),Count,[8],62
same,Count,[9],62
TPWLPTI (peptide),Count,[5],7
TSPWELR (peptide),Count,[3],108
same,Count,[4],107
VLKNNPT (peptide),Count,[3],87
same,Count,[4],86
VLTKPMP (peptide),Count,[3],56
same,Count,[4],56
WLAAGSQ (peptide),Count,[5],6
WPSISRP (peptide),Count,[3],58
same,Count,[4],57
WTMKPNY (peptide),Count,[6],14
same,Count,[2],13
YNHTMMY (peptide),Count,[5],7
YPKLWTY (R3 Myelin PLP-binding peptide),Count,[8],35
same,Count,[9],35
YTPMGTG (R3 Myelin PLP-binding peptide),Count,[8],50
same,Count,[9],50
AITSRNA,Count,[10],15
EHGYYKV,Count,[10],16
same,Count,[11],17
SKSDAWR,Count,[10],14
LPMRILT,Count,[10],16
same,Count,[11],16
SVLRMLN,Count,[10],16
ILLPSLN,Count,[10],13
